Experimental data taken from publication PMC10397247.
Blank lines part the entries; values can stand above or below the binder they belong to.

What was measured:
Experiment in all cases: two-hybrid library CCNG1;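 also: natural log of median RNA to DNA barcode read ratio; higher means stronger binding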
[1] = biological target: T1, 4H591-bA
T1 chain: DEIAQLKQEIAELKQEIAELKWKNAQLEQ

[2] = biological target: T2, 4H626-bA
T2 chain: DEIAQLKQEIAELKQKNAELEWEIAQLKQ

[3] = biological target: T3, P1A-bH
T3 chain: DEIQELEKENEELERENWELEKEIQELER

[4] = biological target: T4, 4H906-bA
T4 chain: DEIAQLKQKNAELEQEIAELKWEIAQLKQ

[5] = biological target: T5, 4H2745-bH
T5 chain: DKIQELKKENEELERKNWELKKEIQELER

[6] = biological target: T6, 4H3961-bH
T6 chain: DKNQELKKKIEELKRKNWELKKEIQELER

[7] = biological target: T7, 4H363-bH
T7 chain: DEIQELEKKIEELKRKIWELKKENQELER

[8] = biological target: T8, 4H3907-bH
T8 chain: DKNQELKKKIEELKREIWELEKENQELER

[9] = biological target: T9, 4H470-bH
T9 chain: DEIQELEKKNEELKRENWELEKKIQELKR

[10] = biological target: T10, 4H344-bH
T10 chain: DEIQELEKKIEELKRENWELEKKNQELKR

[11] = biological target: T11, 4H491-bH
T11 chain: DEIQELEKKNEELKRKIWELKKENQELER

[12] = biological target: T12, 4H48-bH
T12 chain: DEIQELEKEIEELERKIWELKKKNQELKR

[13] = biological target: T13, 4H342-bH
T13 chain: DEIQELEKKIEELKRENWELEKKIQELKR

[14] = biological target: T14, 4H2944-bH
T14 chain: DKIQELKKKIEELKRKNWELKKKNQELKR

[15] = biological target: T15, 4H918-bN
T15 chain: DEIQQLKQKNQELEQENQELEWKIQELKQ

[16] = biological target: T16, 4H575-bN
T16 chain: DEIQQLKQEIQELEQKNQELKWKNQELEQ

[17] = biological target: T17, 4H457-bN
T17 chain: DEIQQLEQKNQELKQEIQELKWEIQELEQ

[18] = biological target: T18, 4H2702-bN
T18 chain: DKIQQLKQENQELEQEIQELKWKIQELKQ

[19] = biological target: T19, 4H1831-bN
T19 chain: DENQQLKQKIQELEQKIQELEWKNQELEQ

[20] = biological target: T20, 4H2627-bN
T20 chain: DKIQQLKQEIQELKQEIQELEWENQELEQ

[21] = biological target: T21, 4H2586-bN
T21 chain: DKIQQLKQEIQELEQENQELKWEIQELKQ

[22] = biological target: T22, 4H780-bN
T22 chain: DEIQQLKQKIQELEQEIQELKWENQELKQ

[23] = biological target: T23, 4H3926-bN
T23 chain: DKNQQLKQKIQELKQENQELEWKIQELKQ

[24] = biological target: T24, 4H754-bN
T24 chain: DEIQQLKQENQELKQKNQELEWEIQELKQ

[25] = biological target: T25, 4H683-bN
T25 chain: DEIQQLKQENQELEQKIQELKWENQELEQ

[26] = biological target: T26, 4H968-bN
T26 chain: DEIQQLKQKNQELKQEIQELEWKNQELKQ

[27] = biological target: T27, 4H170-bN
T27 chain: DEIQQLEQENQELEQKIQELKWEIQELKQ

[28] = biological target: T28, 4H2673-bN
T28 chain: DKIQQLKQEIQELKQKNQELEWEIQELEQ

[29] = biological target: T29, 4H3112-bN
T29 chain: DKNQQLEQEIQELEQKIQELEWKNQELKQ

[30] = biological target: T30, 4H3010-bN
T30 chain: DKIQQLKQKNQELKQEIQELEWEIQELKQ

[31] = biological target: T31, 4H855-bN
T31 chain: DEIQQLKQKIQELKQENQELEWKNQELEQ

[32] = biological target: T32, 4H4073-bN
T32 chain: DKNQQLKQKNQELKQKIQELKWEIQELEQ

[33] = biological target: T33, 4H346-bN
T33 chain: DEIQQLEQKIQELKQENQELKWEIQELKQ

[34] = biological target: T34, 4H953-bN
T34 chain: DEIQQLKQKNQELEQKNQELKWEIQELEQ

[35] = biological target: T35, 4H3427-bN
T35 chain: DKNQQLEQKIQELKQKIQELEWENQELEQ

[36] = biological target: T36, 4H797-bN
T36 chain: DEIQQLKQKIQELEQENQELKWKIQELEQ

[37] = biological target: T37, 4H3112-bA
T37 chain: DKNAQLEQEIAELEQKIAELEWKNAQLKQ

[38] = biological target: T38, 4H855-bA
T38 chain: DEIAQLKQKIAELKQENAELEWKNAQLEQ

[39] = biological target: T39, 4H2586-bA
T39 chain: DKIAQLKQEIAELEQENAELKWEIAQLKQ

[40] = biological target: T40, 4H754-bA
T40 chain: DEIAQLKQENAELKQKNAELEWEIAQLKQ

[41] = biological target: T41, 4H968-bA
T41 chain: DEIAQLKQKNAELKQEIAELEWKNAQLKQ

[42] = biological target: T42, 4H2702-bA
T42 chain: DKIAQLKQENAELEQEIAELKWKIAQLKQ

[43] = biological target: T43, 4H918-bA
T43 chain: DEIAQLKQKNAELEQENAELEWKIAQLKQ

[44] = biological target: T44, 4H170-bA
T44 chain: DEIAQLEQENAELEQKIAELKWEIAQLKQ

[45] = biological target: T45, 4H683-bA
T45 chain: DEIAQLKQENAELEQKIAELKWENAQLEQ

[46] = biological target: T46, 4H4073-bA
T46 chain: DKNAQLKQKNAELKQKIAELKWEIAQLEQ

[47] = biological target: T47, 4H953-bA
T47 chain: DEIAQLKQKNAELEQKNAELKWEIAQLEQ

[48] = biological target: T48, 4H2627-bA
T48 chain: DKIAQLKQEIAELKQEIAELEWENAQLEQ

[49] = biological target: T49, 4H780-bA
T49 chain: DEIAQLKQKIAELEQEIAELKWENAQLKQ

[50] = biological target: T50, 4H575-bA
T50 chain: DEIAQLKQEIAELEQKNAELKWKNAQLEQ

[51] = biological target: T51, 4H3427-bA
T51 chain: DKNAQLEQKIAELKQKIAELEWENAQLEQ

[52] = biological target: T52, 4H346-bA
T52 chain: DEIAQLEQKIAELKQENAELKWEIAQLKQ

[53] = biological target: T53, 4H3926-bA
T53 chain: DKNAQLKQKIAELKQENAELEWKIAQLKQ

[54] = biological target: T54, 4H2673-bA
T54 chain: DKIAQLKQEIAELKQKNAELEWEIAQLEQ

[55] = biological target: T55, 4H797-bA
T55 chain: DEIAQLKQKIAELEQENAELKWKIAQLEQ

[56] = biological target: T56, 4H3010-bA
T56 chain: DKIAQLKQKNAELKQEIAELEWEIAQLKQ

[57] = biological target: T57, 4H457-bA
T57 chain: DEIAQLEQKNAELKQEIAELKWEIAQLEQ

[58] = biological target: T58, 4H1831-bA
T58 chain: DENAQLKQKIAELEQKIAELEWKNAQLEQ

interaction score [1]: 1.45 | interaction score [2]: -1.82 | interaction score [3]: 0.0694 | interaction score [4]: -1.23
Binder: DEIAQLKQEIAELKQEIAELKWKNAQLEQ [4H591-bA]

interaction score [5]: -0.337 | interaction score [6]: -0.688 | interaction score [7]: -0.763 | interaction score [8]: -0.566 | interaction score [9]: 1.22 | interaction score [10]: -0.814
Binder: DKIQELKKENEELERKNWELKKEIQELER [4H2745-bH]

interaction score [11]: -0.773 | interaction score [12]: 0.638 | interaction score [13]: 0.551 | interaction score [14]: -0.179
Binder: DKIQELKKKIEELKRKNWELKKKNQELKR [4H2944-bH]

interaction score [15]: -0.811 | interaction score [16]: 0.401 | interaction score [17]: -0.694 | interaction score [18]: 1.32 | interaction score [19]: -1.26 | interaction score [20]: -1.42 | interaction score [21]: -1.86 | interaction score [22]: -0.283 | interaction score [23]: 0.153 | interaction score [24]: -0.104 | interaction score [25]: -0.329 | interaction score [26]: 1.15 | interaction score [27]: 0.334 | interaction score [28]: -0.742 | interaction score [29]: 0.507 | interaction score [30]: 2.14 | interaction score [31]: 0.202 | interaction score [32]: 1.61 | interaction score [33]: -0.772 | interaction score [34]: -1.71 | interaction score [35]: -0.458 | interaction score [36]: -0.668
Binder: DEIQQLEQENQELEQKIQELKWEIQELKQ [4H170-bN]

interaction score [37]: -0.374 | interaction score [38]: -0.225 | interaction score [39]: -0.588 | interaction score [40]: -0.923 | interaction score [41]: 2.27 | interaction score [42]: 2.21 | interaction score [43]: 0.927 | interaction score [44]: 0.744 | interaction score [45]: -0.581 | interaction score [46]: 1.89 | interaction score [47]: 0.253 | interaction score [48]: 1.23 | interaction score [49]: -0.413 | interaction score [50]: -0.482 | interaction score [51]: 0.122 | interaction score [52]: -1.19 | interaction score [53]: 1.67 | interaction score [54]: 1.01 | interaction score [55]: -0.00525 | interaction score [56]: 2.15 | interaction score [57]: 1.56 | interaction score [58]: -1.05
Binder: DEIAQLEQENAELEQKIAELKWEIAQLKQ [4H170-bA]
